Test: soluble on expression in E. coli; label from the status in PepcDB or PDB records

| Sequence | soluble on expression in E. coli |
| --- | --- |
| SNAMKVINVDVAIIGTGTAGMGAYRAAKKHTDKVVLIEGGAYGTTCARVGCMPSKLLIAAADASYHASQTDLFGIQVDRISVNGKAVMKRIQTERDRFVGFVVESVESFDEQDKIRGFAKFLDEHTLQVDDHSQVIAKRIVIATGSRPNYPEFLAAAGSRLLTNDNLFELNDLPKSVAVFGPGVIGLELGQALSRLGVIVKVFGRSGSVANLQDEEMKRYAEKTFNEEFYFDAKARVISTIEKEDAVEVIYFDKSGQKTTESFQYVLAATGRKANVDKLGLENTSIELDKKNSPLFDELTLQTSVDHIFVAGDANNTLTLLHEAADDGKVAGTNAGAYPVIAQGQRRAPLSVVFTEPQVASVGLSLRQIEDLYADQDAANYVVGQVSFEGQGRSRVMGKNKGLLNVYADRTSGEFLGAEMFGPAAEHIGHLLAWARQQQMTVQAMLTMPFYHPVIEEGLRTALRDAQQKLAIEKHDMNEFIMTHDNAMKLVI | soluble |
| SNAMLRYGDTEICIDPSESVLHLLGKKYTMLIISVLGNGSTRQNFNDIRSSIPGISSTILSRRIKDLIDSGLVERRSGQITTYALTEKGMNVRNSLMPLLQYISVLDRNGD | soluble |
| SNAMNIQALLSEKVSQALIAAGAPADCEPQVRQSAKVQFGDYQANGVMAVAKKLGMAPRQLAEQVLSHLDLNGIANKVEIAGPGFINIFLDPAFLADNVNRALQSERLG | soluble |
| SNAMSFIAIIPARYASTRLPGKPLADIAGKPMVVHVMERALASGADRVIVATDHPDVVKAVEAAGGEVCLTRADHQSGTERLAEVIEHYGFADDDIIVNVQGDEPLVPPVIIRQVADNLAACSAGMATLAVPIASSEEAFNPNAVKVVMDAQGYALYFSRATIPWERERFAQSKETIGDCFLRHIGIYAYRAGFIRRYVNWAPSQLEQIELLEQLRVLWYGEKIHVAVAKAVPAVGVDTQSDLDRVRAIMLNQ | soluble |
| SNAMSKKAELAELVKELAVVHGKVTLSSGKEADYYVDLRRATLHARASRLIGELLRELTADWDYVAVGGLTLGADPVATSVMHADGREIHAFVVRKEAKKHGMQRRIEGPDVVGKKVLVVEDTTTTGNSPLTAVKALREAGAEVVGVATVVDRATGAADVIAAEGLEYRYILGLEDLGLA | soluble |
| SNAMWKRMTAKAEGLYIADTKSFVTKQMDKLDFDYGGIPGDLHFGLTKKAGAREPMFSRGTEIFNRRQISIVSIEECNEIALKMGVPRILPEWLGANVAVSGMPDLTSLKEGSRIIFPSGAALLCEGENDPCIQPGEVIQSYYPDQPKLASAFVRHALGIRGIVCIVERPGAVYTGDEIEVHSYQRKVKRKAERV | soluble |
| SNAQESRLDRILESGVLRVATTGDYKPFSYRTEEGGYAGFDVDMAQRLAESLGAKLVVVPTSWPNLMRDFADDRFDIAMSGISINLERQRQAYFSIPYLRDGKTPITLCSEEARFQTLEQIDQPGVTAIVNPGGTNEKFARANLKKARILVHPDNVTIFQQIVDGKADLMMTDAIEARLQSRLHPELCAVHPQQPFDFAEKAYLLPRDEAFKRYVDQWLHIAEQSGLLRQRMEHWLEYR | soluble |
| SNASYETSQHNLDAVEAVLSRLQKQTGEMAAYMVPVGYRALCVSQRESMQALRCSFVQGQSQPLLRGASSKVMLAYMPAARCEKILRYFGEDPTLDKWQSEFEKIRRHGYAVSTSEIDPGVSGISAPVMKGSKLIGAISVMAPAHRVESNKQRIILHVLQAARAL | soluble |
| SNEVKESLRSIEQKYKLFQQQQFTFIAALEHCRENAHDKIRPISSIEQVQSYMEHYCNNSTHRRILIMFMDICSELSKLCQHFEALHSGTPVTNSLLEKCKTLVSQSNDLSSLRAKYPHEVVNHLSCDEARNHYGGVVSLIPIVLDFMKEWIAHSEKLPRKVLQHGTT | soluble |
| SNKLMELANLQPKRPKTIKQRHVRKKRKIKDMLNTPLCPSHSSLHPVLLPSDVFDQPQPVGNKRIEFHISTDMPAAFKKDLEKEQNCEEKNHDLPATEVDASNIGFGKIFPKPNLDITEEIKEDSDEMPSECISRRELEKGRISREEMETLSVFRSYEPGEPNCRIYVKNLAKHVQEKDLKYIFGRYVDFSSETQRIMFDIRLMKEGRMKGQAFIGLPNEKAAAKALKEANGYVLFGKPMVVQFARSARPKQDPKEGKRKC | soluble |
| SNQECPDYLRELIRKTKTLTEKPFGIGVVLAFPHDLNIKTILEEKVAVLQLYWGDCSQELVDDAHFAGVKVIPQVGNVEEARKAVAVGVDAIIVQGREAGGHVIGKDGLFSLLPRVVDLVGERDIPVIAAGGIVDGRGYVAALSLGAQGVCLGTRFVATHESYAHPIYKRKLIEYEKTEYTDVFGRARWPGAPQRVLETPFFDDWRSLPAHENEVNQPIIGRSTIHGVEKEIRRFSGTVPNMTTTGDLESMAMYAGQSVGLIKEILPAGEVVKSLVEEAQALILQKFNNATTT | soluble |
| SNTQAERSIIGMIDMFHKYTRRDDKIDKPSLLTMMKENFPNFLSACDKKGTNYLADVFEKKDKNEDKKIDFSEFLSLLGDIATDYHKQSHGAAPCSGGSQ | soluble |
| SPGQGTQSENSCTHFPGNLPNMLRDLRDAFSRVKTFFQMKDQLDNLLLKESLLEDFKGYLGCQALSEMIQFYLEEVMPQAENQDPDIKAHVNSLGENLKTLRLRLRRCHRFLPCENKSKAVEQVKNAFNKLQEKGIYKAMSEFDIFINYIEAYMTMKIRN | soluble |
| SPTVEELYRNYGILADATEQVGQHKDAYQVILDGVKGGTKEKRLAAQFIPKFFKHFPELADSAINAQLDLCEDEDVSIRRQAIKELPQFATGENLPRVADILTQLLQTDDSAEFNLVNNALLSIFKMDAKGTLGGLFSQILQGEDIVRERAIKFLSTKLKTLPDEVLTKEVEELILTESKKVLEDVTGEEFVLFMKILSGLKSLQTVSGRQQLVELVAEQADLEQTFNPSDPDCVDRLLQCTRQAVPLFSKNVHSTRFVTYFCEQVLPNLGTLTTPVEGLDIQLEVLKLLAEMSSFCGDMEKLETNLRKLFDKLLEYMPLPPEEAENGENAGNEEPKLQFSYVECLLYSFHQLGRKLPDFLTAKLNAEKLKDFKIRLQYFARGLQVYIRQLRLALQGKTGEALKTEENKIKVVALKITNNINVLIKDLFHIPPSYKSTVTLSWKPVQKVEIGQKRASEDTTSGSPPKKSSAGPKRDARQIYNPPSGKYSSNLGNFNYERSLQGK | soluble |
| SQELRGEIKLFCSVTASYSHLPELLSSFRLKHPYIEFKLLTGDPAQAIDKILHDEADIAISAMPEQLPSRIEFATISEIPLSVIAPLGISSFMDELQKEQPDWNEIPFIVPESGTARDRANTWFKQMKIKPNIYAQIAGHEAIV | not soluble |
| SQILDRKGRLIANIYDKEFRFYARFEEIPPRFIESLLAVEDTLFFEHGGINLDAIMRAMIKNAKSGRYTEGGSTLTQQFVKNMVLTREKTLTRKLKEAIISIRIEKVLSKEEILERYLNQTFFGHGYYGVKTASLGYFKKPLDKLTLKEITMLVALPRAPSFYDPTKNL | not soluble |
| SQKQKALLQRVETDITSVVDNFTQIVNVSRVSDPPVKNSQETYMMEMRASRMATQVLLKDFLMSLWSVVNLLPHQWWQVQAADSLLKLVSELKQTAIFSGFASLNDHVEQRIEEFDQEAEKTNRLLARIADDASANLKELESHYYSSAQRLTLDI | not soluble |
| SRAMPASLSTAALRSDNVSPVDPLGVQREFDHYVSVLRDRLGLQVVMLPADEELPDCVFVEDTAVVCGSTALITRPGAPSRRSETVAMKGALTELGLNIVEMNDESATMDGGDVLFTGKEFFVGLSKRTNQRGAEILANTFKDYAVSTIPVEEGLHLKSFCSMAGPNLIAIGSSDAAQKALKVIQQMSDCKYEKLTVPDDRAANCVYMNLPGKGDVLLHCTPEVFPESAKVFERLKSHMLIPVSNQEKMKVDGALTCLSVLLRI | soluble |
| SREGVLYDGDSLAYIIAKHRQQLGELQGGVAGTLMTNLAVEQAFERLGIPFARANVGDRYVSELLQQNDWYLGAENSGHIICRDKHTTGDGIISALQVLYALRDTGLTLADFMRDVPFF | not soluble |
| SRMQRDLSDSTVLRNLGVAFSYSLIAYHSVAKGNDKLQINKSALQKDLSENWEVLAEAIQTVMRRYNEPNAYEQLKELTRGQMIDAENLKKFIKTLSIPEEAKAELMKLTPETYTGLATQLVKAFS | not soluble |
| SRNICYDAFVSYSERDAYWVENLMVQELENFNPPFKLCLHKRDFIHGKWIIDNIIDSIEKSHKTVFVLSENFVKSEWCKYELDFSHFRLFDENNDAAILILLEPIEKKAIPQRFCKLRKIMNTKTYLEWPMDEAQREGFWVNLRAAIKS | soluble |
| SRPVFAAKPDNEAIIDAQMKKPKVPVHAIATASHPMIRFIGHPEEQKNYDFFVPWLSKLPQWIAEGKQPYVMIHTADNIIAPELAANIYKNLQNHVALPDLAPFPANDGNSQLQMF | not soluble |
| SSDLGSEELEEEGENDLGEYEGERNELGERHGHGKARLPNGDTYEGNYESGKRHGQGTYKFKNGARYVGDYVKNKKHGQGTFVYPDGSRYEGEWADDQRHGHGVYYYVNNDTYTGEWFNHQRHGQGTYFYAETGSKYVGTWVHGQQEGAAELIHLNHRYQGKFINKNPVGPGKYVFDVGCEQHGEYRLTDVERGEEEEEEETLVSIVPKWKALKITELALWTPTLSEEHPPAEGQGQEEVQGATGAGEPSDDIQAEGFEVDAEPRTGEEDIDFRQESQENSYDLDQGNPNFDEEQLDLQE | soluble |
| SSGHIEGRHMNKQATEILNEYFYSHLSNPYPSEEAKEELAKKCGITVSQVSNWFGNKRIRYKKN | soluble |
| SSKALLALKSQVEKRKAELQTQNRTKKWKRIGDQWKEEDKIQEQETFLEAHSPIESKQENGTETSNKEPPLLKEEVIERLRAWEQPATLFGETDYERYIRLRDLELRNSEESKGQRNIFQQKLRQFKEKDELENFYRVTEMELPSKGSAAQKVKEEIYAAEEGPEFFKTPEEYCFRYMRRLLKMWKAEVEQLDEETKRTSLGRKTLATFEQTKEYLKPLFRKLKKQQLDKSILTSLEKILRYVEQREYVLANDEYLRLAIGNAPWPVGATMVGIHARTAREKISEGKIAHVMNDEETRKYIQAVKRLITLSQKWYPTVPSKMVVG | soluble |
| SSPEYAMEGIFSVKSDVFSFGVLVLEIVSGKRNRGFHNSGQDNNLLGYTWENWKEGKGLEIVDSIIVDSSSSMSLFQPHEVLRCIQIGLLCVQERAEDRPKMSSVIVPFCTR | soluble |
| SSPFLYLVLLVLGLHATIHCASPEGKVTACHSSQPNATLYKMSSINADFAFNLYRRFTVETPDKNIFFSPVSISAALVMLSFGACCSTQTEIVETLGFNLTDTPMVEIQHGFQHLICSLNFPKKELELQIGNALFIGKHLKPLAKFLNDVKTLYETEVFSTDFSNISAAKQEINSHVEMQTKGKVVGLIQDLKPNTIMVLVNYIHFKAQWANPFDPSKTEDSSSFLIDKTTTVQVPMMHQMEQYYHLVDMELNCTVLQMDYSKNALALFVLPKEGQMESVEAAMSSKTLKKWNRLLQKGWVDLFVPKFSISATYDLGATLLKMGIQHAYSENADFSGLTEDNGLKLSNAAHKAVLHIGEKGTEAAAVPEVELSDQPENTFLHPIIQIDRSFMLLILERSTRSILFLGKVVNPTEA | not soluble |
| SSSRGFNIKARGLCNNNNGGGGTGAKCGRWNPTVEQVKLLTDLFKAGLRTPSTDQIQKISMELSFYGKIESKNVFYWFQNHKARERQKCRKISTVKFDHRQDTDLSKPRRDNVRRHQLPAKG | soluble |
| STATIDRRLSTLNPNAPVFDPVEFREVEDFSPKWWDLVTTSKWFRDFWLSANSENEFLGGDDFSVMEEEFEEMIASSDGGSMADTVTEADVASYLKMLLNIAESTKEKIYRSKVSSCSPKYNQKKYMNPNFNCRRNHHIYQPR | soluble |

Source: the DeepSol protein solubility set
